# Earlier results as cited in patent EP3351262A1, “CURAGLUTIDE FOR IN TREATMENT OF PREDIABETES, DIABETES, OBESITY AND METABOLIC DISEASES ASSOCIATED THERETO” (Istanbul Universitesi Rektorlugu, priority 2016, dated 2018).
# Conditions: in vivo; cited from earlier work
substance,measurement,value
"GLP-1: glucagon like peptide-1, a neuroendocrine (intestinal) hormone with incretin effect",half-life in plasma,12 to 30 min
